Consider 4 molecules from EP4541814A1.

The target of assay [1] is trastuzumab-GFP (prepared in-house). As to the kind of experiment: SPR (Biacore 8K+), fusion protein amine-coupled to CM5, Fc block 2 uM, then trastuzumab-GFP 1 uM. For orientation: Surface plasmon resonance follows binding to a sensor surface in real time, without labels.
For assay [2], the target named is epidermal growth factor receptor (EGFR), Example 4A analyte (UniProt P00533). Put plainly: SPR (Biacore 8K+), fusion protein amine-coupled to CM5, EGFR 200 nM, report point late binding.
The target of assay [3] is EGFR (SinoBiological, 10001-H08H) (UniProt P00533). As to the kind of experiment: SPR (Biacore 8K+), fusion protein amine-coupled to CM5, EGFR 200 nM.

B1: Candidate 4B-5: vh60 fusion protein (SEQ ID NO:172) (VHH)
VHH: QVQLQESGGGLVQPGGSLRLSCAASGRTSINPYMAWFRQAPGKQREFVAAISSGGVYTYYTDSVKGRFTISRDNAKTTVYLQMNSLKPEDTAVYYCAADFRRGGNWNVDPFRYDYQYWGQGTQVTVSS
In turn, B1 came in with a trastuzumab-eGFP response in analyte binding late (1 µM, RU) in assay [1] of 4300 RU.

B2: Candidate 4B-6: vh113 fusion protein (SEQ ID NO:173) (VHH)
VHH: QVQLQQSGGGSVQAGGSLRLSCTISGRTSINPYMAWFRQRPGKEREFVAAISSGGVYTYYADSVKGRFTISRDNAKNTVYLQMNSLKPEDTAVYYCAADFRRGGNWNVDPFRYDYDYWGQGTQVTVSS
In assay [1], B2 displayed a trastuzumab-eGFP response in analyte binding late (1 µM, RU) of 3910 RU.

B3: Candidate 4A-5: vh167 fusion protein (SEQ ID NO:169) (VHH)
VHH: QVQLQQSGGGSVQAGGSLRLSCTISGRTFSSYAMGWFRQRPGKEREFVAAINWSSGSTYYADSVKGRFTISRDNAKNTVYLQMNSLKPEDTAVYYCAAGYQINSGNYNFKDYEYDYWGQGTQVTVSS
Consider B3, for which the Binding capacity EGFR (200 nM) (RU) in assay [2] is 2350 RU.

B4: Candidate 4B-4: vh167 fusion protein (SEQ ID NO:175) (VHH)
VHH: QVQLQQSGGGSVQAGGSLRLSCTISGRTFSSYAMGWFRQRPGKEREFVAAINWSSGSTYYADSVKGRFTISRDNAKNTVYLQMNSLKPEDTAVYYCAAGYQINSGNYNFKDYEYDYWGQGTQVTVSS
Turning to B4, in assay [3], the EGFR response in analyte binding late (200 nM, RU) is 1900 RU.
